Columns and labels:
[1] = target: T1, N-terminal peptide aa1-48, BSA-coupled (human; bovine, coupled to carrier protein BSA; C-terminal cysteine introduced to enable coupling); test: ELISA, coated peptide-BSA, Fab
T1 construct: also called CXCR2 aa1-48 BSA
Experimental: (§1) 384-well Maxisorp plates (Nunc; Cat. #460518) were coated with respective CXCR2 and control peptides coupled either to BSA or Transferrin (TRF) at 1-5 μg/mL and incubated o/n at 4° C. […] After three washing steps, antibodies were added at 5-10 μg/mL and titrated in some experiments. Antibodies were incubated 1 h at room temperature and plates were subsequently washed. Binding of anti-CXCR2 antibodies was detected by using alkaline phosphatase-conjugated anti-human IgG, (Dianova, Cat #109-055-097). AttoPhos fluorescence substrate (Roche, Cat #1484281) was added according to instructions of the manufacturer and fluorescence was measured (excitation at 430 nm, emission at 535 nm) using a microplate reader.

human CXCR2 [2] = target: T2, human CXCR2 (human, UniProt P25025 1-360); test: FACS, CXCR2 CHO Flp-In cells, Fab
T2 construct: Expressed on Flp-In CHO cells (FACS, Fab-ZAP, ADCC, CDC) or on bought PathHunter CHO cells (beta-arrestin assay); the construct in the PathHunter cells is not described; also called chemokine receptor CXCR2; CXCR2 CHO Flp-In cells
T2 sequence: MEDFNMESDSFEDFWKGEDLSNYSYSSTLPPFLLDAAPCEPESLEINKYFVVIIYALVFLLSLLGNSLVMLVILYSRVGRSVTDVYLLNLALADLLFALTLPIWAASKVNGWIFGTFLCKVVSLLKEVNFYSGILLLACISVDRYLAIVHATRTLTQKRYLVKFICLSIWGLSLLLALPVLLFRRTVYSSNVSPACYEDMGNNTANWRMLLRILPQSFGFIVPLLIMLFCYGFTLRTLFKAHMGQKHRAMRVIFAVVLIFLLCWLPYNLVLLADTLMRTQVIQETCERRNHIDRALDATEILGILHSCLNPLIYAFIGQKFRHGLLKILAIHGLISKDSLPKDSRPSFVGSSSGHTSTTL
Experimental: (§2) Human CXCR2-expressing Flp-In™ CHO cells were harvested at ˜80% confluence washed once with PBS (Gibco, Cat #14190-094) and detached using Versene (Invitrogen, Cat #15040-033). Subsequently, cells were counted and centrifuged at 250×g for 5 min at 4° C. Afterwards, cells were diluted in Superblock (Thermo Fisher Perbio Science, Cat #37515) to a cell concentration of 2E+05-1E+06/mL and 100 μL/well were transferred to 96-well microtiter plate (Nunc, Cat#163320). Cells were once centrifuged, supernatant discarded and antibodies added at 1 μg/mL (unless stated otherwise), incubated for 1 h at 4° C. and washed twice with FACS buffer (PBS/3% FCS/0.02% NaN3). Binding of anti-CXCR2 antibodies was detected by incubation of Phycoerythrin-conjugated anti-human IgG (Dianova, Cat #109-116-097) for 1 h at 4° C. Samples were subsequently measured using FACS Array (Becton Dickinson).

[3] = target: T3, hu_CXCR2_N-term (1-17)-BSA (human; bovine, coupled to carrier protein BSA; C-terminal cysteine introduced to enable coupling); test: ELISA, coated peptide-BSA, IgG1
T3 construct: Synthetic linear peptide chemically coupled to the carrier; also called CXCR2_aa1-17_BSA; CXCR2 aa1-17 BSA
Experimental: as §1

[4] = target: T1, N-terminal peptide aa1-48, BSA-coupled; test: ELISA, coated peptide-BSA, IgG1
Experimental: as §1
Target sequence in this assay (P02769 25-607 limits assumed): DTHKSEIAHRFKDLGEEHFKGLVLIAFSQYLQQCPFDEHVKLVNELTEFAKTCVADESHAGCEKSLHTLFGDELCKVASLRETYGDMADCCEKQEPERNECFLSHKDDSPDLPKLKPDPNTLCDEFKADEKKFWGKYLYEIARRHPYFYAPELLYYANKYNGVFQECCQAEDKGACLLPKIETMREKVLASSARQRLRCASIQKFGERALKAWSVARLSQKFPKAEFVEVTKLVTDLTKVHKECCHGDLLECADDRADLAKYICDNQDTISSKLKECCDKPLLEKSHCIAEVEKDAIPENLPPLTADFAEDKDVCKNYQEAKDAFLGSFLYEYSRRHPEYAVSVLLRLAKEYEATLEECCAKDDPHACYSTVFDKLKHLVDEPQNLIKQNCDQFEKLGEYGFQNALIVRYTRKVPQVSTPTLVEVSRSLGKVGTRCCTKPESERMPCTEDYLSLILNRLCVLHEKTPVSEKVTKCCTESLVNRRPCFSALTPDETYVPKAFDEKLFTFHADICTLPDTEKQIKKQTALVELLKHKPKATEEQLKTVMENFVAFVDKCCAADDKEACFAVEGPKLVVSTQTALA

human CXCR2 [5] = target: T2, human CXCR2; test: FACS, CXCR2 CHO Flp-In cells, IgG1
Experimental: as §2

[6] = target: T4, ECL3 peptide aa273-295, BSA-coupled (human; bovine, coupled to carrier protein BSA; C-terminal cysteine introduced to enable coupling); test: ELISA, coated peptide-BSA, Fab
T4 construct: also called CXCR2 aa273-295 BSA; peptides representing the extracellular domain 3
Experimental: as §1

[7] = target: T3, hu_CXCR2_N-term (1-17)-BSA; test: ELISA, coated peptide-BSA, Fab
Experimental: as §1

Measured: binding result

T3 sequence (P02769 25-607 limits assumed): as above
T4 sequence (peptide, as listed by the source limits assumed, chain 1 of 2): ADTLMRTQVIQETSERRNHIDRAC
T4 sequence (P02769 25-607 limits assumed, chain 2 of 2): as the sequence (P02769 25-607 limits assumed) above

B1: CX2-Mab #11 (Fab, V domains shown)
VH: QVQLVQSGAEVKKPGSSVKVSCKASGGTFTDYAISWVRQAPGQGLEWMGGIIPIFGTANYAQKFQGRVTITADESTSTAYMELSSLRSEDTAVYYCARHSYSFDYWGQGTLVTVSS
VL: DIELTQPPSVSVSPGQTASITCSGDNLRKKYAYWYQQKPGQAPVLVIGSKSNRPSGIPERFSGSNSGNTATLTISGTQAEDEADYYCQSYDSGRVVFGGGTKLTVLG
binds: [1] | human CXCR2 [2]

B2: CX2-Mab #14 (Fab, V domains shown)
VH: QVQLQQSGPGLVKPSQTLSLTCAISGDSVSSNSAAWNWIRQSPSRGLEWLGRIYYRSKWYNDYAVSVKSRITINPDTSKNQFSLQLNSVTPEDTAVYYCARDVPYYSDYSHYVYYYGAWFDVWGQGTLVTVSS
VL: DIELTQPPSVSVSPGQTASITCSGDSIPYNYAHWYQQKPGQAPVLVIYDDSDRPSGIPERFSGSNSGNTATLTISGTQAEDEADYYCGAYDKKWVVFGGGTKLTVLG
binds: [1] | human CXCR2 [2]

B3: CX2-Mab #4.1 (antibody, IgG1, V domains shown)
VH: QVQLVQSGAEVKKPGSSVKVSCKASGGTFSSYAISWVRQAPGQGLEWMGHIPPNEGTPWYAQKFQGRVTITADESTSTAYMELSSLRSEDTAVYYCARGYGFDVWGQGTLVTVSS
VL: DIVLTQPPSVSGAPGQRVTISCSGSSSNIGVNIVNWYQQLPGTAPKLLIYSTSNRPSGVPDRFSGSKSGTSASLAITGLQAEDEADYYCATRDGISKSVVFGGGTKLTVLG
binds: [3] | [4] | human CXCR2 [5]

B4: CX2-Mab #4.2 (antibody, IgG1, V domains shown)
VH: QVQLLESGGGLVQPGGSLRLSCAASGFTFSSNGMSWVRQAPGKGLEWVSAISSSGSKTYYADSVKGRFTISRDNSKNTLYLQMNSLRAEDTAVYYCARGYGFDVWGQGTLVTVSS
VL: DIVLTQPPSVSGAPGQRVTISCSGSSSNIGVNIVNWYQQLPGTAPKLLIYSTSNRPSGVPDRFSGSKSGTSASLAITGLQAEDEADYYCGTYDVQSHQMVFGGGTKLTVLG
binds: [3] | [4] | human CXCR2 [5]

B5: CX2-Mab #1.1 (antibody, IgG1, V domains shown)
VH: QVQLVQSGAEVKKPGSSVKVSCKASGGTFSSYAISWVRQAPGQGLEWMGGIIPIVGEAKYAQKFQGRVTITADESTSTAYMELSSLRSEDTAVYYCARDSSGYDGYYAFAYWGQGTQVTVSS
VL: DIVLTQPPSVSGAPGQRGTISCSGSSSNIGSSSVNWYQQLPGTAPKLLIYRNNQRPSGVPDRFSGSKSGTSASLAITGLQAEDEADYYCGSTDMSTNSIVFGGGTKLTVLG
binds: [3] | [4] | human CXCR2 [5]

B6: CX2-Mab #1.3 (antibody, IgG1, V domains shown)
VH: QVQLVQSGAEVKKPGSSVKVSCKASGGTFSSYAISWVRQAPGQGLEWMGGIIPIVGEAKYAQKFQGRVTITADESTSTAYMELSSLRSEDTAVYYCARDSSGYDGYYAFAYWGQGTQVTVSS
VL: DIVLTQPPSVSGAPGQRGTISCSGSSSNIGSSSVNWYQQLPGTAPKLLIYRNNQRPSGVPDRFSGSKSGTSASLAITGLQAEDEADYYCAVTTKPQGIVFGGGTKLTVLG
binds: [3] | [4] | human CXCR2 [5]

B7: CX2-Mab #1.4 (antibody, IgG1, V domains shown)
VH: QVQLVQSGAEVKKPGSSVKVSCKASGGTFSSYAISWVRQAPGQGLEWMGGIIPIVGEAKYAQKFQGRVTITADESTSTAYMELSSLRSEDTAVYYCARDSSGYDGYYAFAYWGQGTQVTVSS
VL: DIVLTQPPSVSGAPGQRGTISCSGSSSNIGSSSVNWYQQLPGTAPKLLIYRNNQRPSGVPDRFSGSKSGTSASLAITGLQAEDEADYYCASTDISRVIVFGGGTKLTVLG
binds: [3] | [4] | human CXCR2 [5]

B8: CX2-Mab #1.6 (antibody, IgG1, V domains shown)
VH: QVQLVQSGAEVKKPGSSVKVSCKASGGTFSSYAISWVRQAPGQGLEWMGGIIPIVGEAKYAQKFQGRVTITADESTSTAYMELSSLRSEDTAVYYCARDSSGYDGYYAFAYWGQGTQVTVSS
VL: DIVLTQPPSVSGAPGQRGTISCSGSSSNIGSSSVNWYQQLPGTAPKLLIYRNNQRPSGVPDRFSGSKSGTSASLAITGLQAEDEADYYCASRDHFSHGLVFGGGTKLTVLG
binds: [3] | [4] | human CXCR2 [5]

B9: CX2-Mab #15 (Fab, V domains shown)
VH: EVQLLESGGGLVQPGGSLRLSCAASGFTFSRYWMSWVRQAPGKGLEWVSVISYSGSETYYADSVKGRFTISRDNSKNTLYLQMNSLRAEDTAVYYCARGRAYGYFDPWGQGTLVTVSS
VL: DIVLTQPPSVSGAPGQRVTISCSGSSSNIGKKTVSWYQQLPGTAPKLLIYRNNQRPSGVPDRFSGSKSGTSASLAITGLQAEDEADYYCGSTTSSHLYVFGGGTKLTVLG
binds: [6] | [7] | [1] | human CXCR2 [2]

B10: CX2-Mab #10 (Fab, V domains shown)
VH: EVQLLESGGGLVQPGGSLRLSCAASGFTFSRYWMSWVRQAPGKGLEWVSVISYSGSETYYADSVKGRFTISRDNSKNTLYLQMNSLRAEDTAVYYCARGRAYGYFDPWGQGTLVTVSS
VL: DIVLTQPPSVSGAPGQRVTISCSGSSSNIGKKTVSWYQQLPGTAPKLLIYRNNQRPSGVPDRFSGSKSGTSASLAITGLQAEDEADYYCSSTTSSSRSVVFGGGTKLTVLG
binds: [6] | [7] | [1] | human CXCR2 [2]

B11: CX2-Mab #16 (Fab, V domains shown)
VH: EVQLLESGGGLVQPGGSLRLSCAASGFTFSRYWMSWVRQAPGKGLEWVSVISYSGSETYYADSVKGRFTISRDNSKNTLYLQMNSLRAEDTAVYYCARGRAYGYFDPWGQGTLVTVSS
VL: DIVLTQPPSVSGAPGQRVTISCSGSSSNIGKKTVSWYQQLPGTAPKLLIYRNNQRPSGVPDRFSGSKSGTSASLAITGLQAEDEADYYCGSTGYRGLYVFGGGTKLTVLG
binds: [6] | [7] | [1] | human CXCR2 [2]

B12: CX2-Mab #3.2 (antibody, IgG1, V domains shown)
VH: QVQLLESGGGLVQPGGSLRLSCAASGFTFSSYAMSWVRQAPGKGLEWVSLISQGGLTYYADSVKGRFTISRDNSKNTLYLQMNSLRAEDTAVYYCARGRVGYAFDYWGQGTLVTVSS
VL: DIVLTQPPSVSGAPGQRVTISCSGSSSNIGVNYVNWYQQLPGTAPKLLIYSNNQRPSGVPDRFSGSKSGTSASLAITGLQAEDEADYYCQSRASGFYSVVFGGGTKLTVLG
binds: [3] | [4] | human CXCR2 [5]

Reference: patent publication US20160060347A1 (MorphoSys, published 2016)
